Results reported in patent publication US20230272011A1 (AVACTA LIFE SCIENCES, published 2023).
Blank lines part the entries; values can stand above or below the binder they belong to.

Legend:
[1] = target: T1, human PD-L1-Fc (R&D Systems) chimeric protein (human, UniProt Q9NZQ7 19-239); assay: SPR (Biacore T200), PD-L1-Fc amine-coupled to CM5, Affimer analyte
T1 construct: Bought reagent; also called rhPD-L1-Fc; huPD-L1; Fc part of the bought chimera not given, not described
Procedure: (§1) ILF dimer production from E. coli was performed as described in Example 3. Briefly, protein was purified using three stages: affinity capture, IEX, and preparative SEC. […] To analyze PD-L1-Fc binding kinetics, a Biacore T200 kinetic analysis was performed using running buffer HBS-EP+ and series S sensor CM5 (GE Healthcare) chip Fc2 immobilized with PD-L1-Fc (R&D Systems) in 10 mM sodium acetate pH 4.0 using amine coupling reagents (GE Healthcare). The concentration titration of ILF AFFIMER® polypeptides was run as analyte at a flow rate of 30 μl/min. […] with 3 mM NaOH (GE healthcare) for 20 seconds at 20 μl/min flow rate. The Fc2-1 data blank was subtracted and fit to a 1:1 Langmuir binding model (Biacore evaluation software; GE) to calculate an apparent KD value.

[2] = target: T1, human PD-L1-Fc (R&D Systems) chimeric …; assay: SPR (Biacore T200), PD-L1-Fc amine-coupled to CM5, Affimer analyte; apparent KD
Procedure: as §1

human serum albumin [3] = target: T2, human serum albumin (human, UniProt P02768 25-609); assay: Biacore, immobilised HSA, pH 7.4
T2 construct: mature; Bought protein; biotinylated in the Octet and HTRF assays; also called HSA; HuSA
Procedure: Affinities for mouse, human, and cynomolgus serum were also measured at pH 7.4 for four (4) AFFIMER® binders using surface plasmon resonance (SPR) (FIG. 5, Table 5). […] A concentration titration of AFFIMER® monomers was run as analyte at a flow rate of 30 μl/min or 60 μl/min. Fc2-1, Fc3-1 and Fc4-1 kinetic data was blank subtracted and fit to a 1:1 Langmuir binding model (BIAcore Evalution software; GE) to calculate KD values.
The AFFIMER® polypeptides were produced and purified from E. coli as described in Example 3.

human serum albumin [4] = target: T2, human serum albumin; assay: SPR (Biacore), immobilised HSA, Affimer analyte
human serum albumin [5] = target: T2, human serum albumin; assay: SPR (Biacore) binding response to HSA at pH 7.4, Affimer at 50 nM
Excerpt: Final clones were sequence-verified, produced from E. coli, and affinity purified as described in Example 3.

T1 sequence (Q9NZQ7 19-239, change not shown): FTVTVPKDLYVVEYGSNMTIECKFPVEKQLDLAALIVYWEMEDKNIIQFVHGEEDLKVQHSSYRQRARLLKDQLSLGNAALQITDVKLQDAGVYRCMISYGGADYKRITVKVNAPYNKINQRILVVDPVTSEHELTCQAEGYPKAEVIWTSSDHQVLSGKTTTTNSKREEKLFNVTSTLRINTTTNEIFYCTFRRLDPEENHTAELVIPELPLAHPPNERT

B1: AVA04-236 (designed binder)
chain: MIPRGLSEAKPATPEIQEIVDKVKPQLEEKTNETYGKLEAVQYKTQVLAKEHGPDSWWSTNYYIKVRAGDNKYMHLKVFNGPQEKNQWVEEADRVLTGYQVDKNKDDELTGF
koff [1]: 0.00977 s⁻¹
kon [1]: 1.8e+06 M⁻¹ s⁻¹
Kd [2]: 5.43 nM

B5: AVA04-236 XT7 (designed binder)
chain: MIPRGLSEAKPATPEIQEIVDKVKPQLEEKTNETYGKLEAVQYKTQVLAKEHGPDSWWSTNYYIKVRAGDNKYMHLKVFNGPQEKNQWVEEADRVLTGYQVDKNKDDELTGFGGGGSGGGGSGGGGSGGGGSGGGGSGGGGSMIPRGLSEAKPATPEIQEIVDKVKPQLEEKTNETYGKLEAVQYKTQVLANFFQRRWPGSTNYYIKVRAGDNKYMHLKVFNGPWKFRNTDRGADRVLTGYQVDKNKDDELTGFHHHHHH
koff [1]: 0.00763 s⁻¹
kon [1]: 1.57e+06 M⁻¹ s⁻¹
Kd (human serum albumin [4]): 13.3 nM
koff (human serum albumin [4]): 0.00336 s⁻¹
kon (human serum albumin [4]): 253000 M⁻¹ s⁻¹
Kd [2]: 4.86 nM

B7: HSA-41 DI (designed binder)
chain: MIPRGLSEAKPATPEIQEIVDKVKPQLEEKTNETYGKLEAVQYKTQVLANFFQRRWPGSTNYYIKVRAGDNKYMHLKVFNGPWKFRNTDRGADRVLTGYQVDKNKDDELTGFGGGGSGGGGSGGGGSGGGGSGGGGSGGGGSMIPRGLSEAKPATPEIQEIVDKVKPQLEEKTNETYGKLEAVQYKTQVLANFFQRRWPGSTNYYIKVRAGDNKYMHLKVFNGPWKFRNTDRGADRVLTGYQVDKNKDDELTGFHHHHHH
notes: also called ILF homodimer with flexible linker; ILF dimer HSA-41 DI
Kd (human serum albumin [3]): 0.201 nM
koff (human serum albumin [3]): 0.000959 s⁻¹
kon (human serum albumin [3]): 4.77e+06 M⁻¹ s⁻¹

B8: HSA-41 D89A (designed binder)
chain: MIPRGLSEAKPATPEIQEIVDKVKPQLEEKTNETYGKLEAVQYKTQVLANFFQRRWPGSTNYYIKVRAGDNKYMHLKVFNGPWKFRNTARGADRVLTGYQVDKNKDDELTGFHHHHHH
binding response (human serum albumin [5]): 26.1

B9: HSA-41 R90A (designed binder)
chain: MIPRGLSEAKPATPEIQEIVDKVKPQLEEKTNETYGKLEAVQYKTQVLANFFQRRWPGSTNYYIKVRAGDNKYMHLKVFNGPWKFRNTDAGADRVLTGYQVDKNKDDELTGFHHHHHH
binding response (human serum albumin [5]): 17.2

B10: HSA-41 N50A (designed binder)
chain: MIPRGLSEAKPATPEIQEIVDKVKPQLEEKTNETYGKLEAVQYKTQVLAAFFQRRWPGSTNYYIKVRAGDNKYMHLKVFNGPWKFRNTDRGADRVLTGYQVDKNKDDELTGFHHHHHH
binding response (human serum albumin [5]): 13

B11: HSA-41 R86A (designed binder)
chain: MIPRGLSEAKPATPEIQEIVDKVKPQLEEKTNETYGKLEAVQYKTQVLANFFQRRWPGSTNYYIKVRAGDNKYMHLKVFNGPWKFANTDRGADRVLTGYQVDKNKDDELTGFHHHHHH
binding response (human serum albumin [5]): 19.1

B12: HSA-41 T88A (designed binder)
chain: MIPRGLSEAKPATPEIQEIVDKVKPQLEEKTNETYGKLEAVQYKTQVLANFFQRRWPGSTNYYIKVRAGDNKYMHLKVFNGPWKFRNADRGADRVLTGYQVDKNKDDELTGFHHHHHH
binding response (human serum albumin [5]): 27.9

B14: HSA-41 G91A (designed binder)
chain: MIPRGLSEAKPATPEIQEIVDKVKPQLEEKTNETYGKLEAVQYKTQVLANFFQRRWPGSTNYYIKVRAGDNKYMHLKVFNGPWKFRNTDRAADRVLTGYQVDKNKDDELTGFHHHHHH
binding response (human serum albumin [5]): 17.8

B15: HSA-41 K84A (designed binder)
chain: MIPRGLSEAKPATPEIQEIVDKVKPQLEEKTNETYGKLEAVQYKTQVLANFFQRRWPGSTNYYIKVRAGDNKYMHLKVFNGPWAFRNTDRGADRVLTGYQVDKNKDDELTGFHHHHHH
binding response (human serum albumin [5]): 23.5

B16: HSA-41 R54A (designed binder)
chain: MIPRGLSEAKPATPEIQEIVDKVKPQLEEKTNETYGKLEAVQYKTQVLANFFQARWPGSTNYYIKVRAGDNKYMHLKVFNGPWKFRNTDRGADRVLTGYQVDKNKDDELTGFHHHHHH
binding response (human serum albumin [5]): 11.9

B17: HSA-41 P57A (designed binder)
chain: MIPRGLSEAKPATPEIQEIVDKVKPQLEEKTNETYGKLEAVQYKTQVLANFFQRRWAGSTNYYIKVRAGDNKYMHLKVFNGPWKFRNTDRGADRVLTGYQVDKNKDDELTGFHHHHHH
binding response (human serum albumin [5]): 23.2

B20: HSA-41 Q53A (designed binder)
chain: MIPRGLSEAKPATPEIQEIVDKVKPQLEEKTNETYGKLEAVQYKTQVLANFFARRWPGSTNYYIKVRAGDNKYMHLKVFNGPWKFRNTDRGADRVLTGYQVDKNKDDELTGFHHHHHH
binding response (human serum albumin [5]): 23.5

The remaining lines, values ahead:

koff [1]: 0.00345 s⁻¹
kon [1]: 2.05e+06 M⁻¹ s⁻¹
Kd [2]: 1.68 nM
B2: AVA04-269 (designed binder)
chain: MIPRGLSEAKPATPEIQEIVDKVKPQLEEKTNETYGKLEAVQYKTQVLAKEYGPEEWWSTNYYIKVRAGDNKYMHLKVFNGPGDYEQVLIHADRVLTGYQVDKNKDDELTGF

Kd (human serum albumin [3]): 0.128 nM
koff (human serum albumin [3]): 0.000994 s⁻¹
kon (human serum albumin [3]): 7.74e+06 M⁻¹ s⁻¹
B3: HSA-41 BK (designed binder)
chain: MIPRGLSEAKPATPEIQEIVDKVKPQLEEKTNETYGKLEAVQYKTQVLANFFQRRWPGSTNYYIKVRAGDNKYMHLKVFNGPWKFRNTDRGADRVLTGYQVDKNKDDELTGFAEAAAKEAAAKEAAAKEAAAKEAAAKEAAAKMIPRGLSEAKPATPEIQEIVDKVKPQLEEKTNETYGKLEAVQYKTQVLANFFQRRWPGSTNYYIKVRAGDNKYMHLKVFNGPWKFRNTDRGADRVLTGYQVDKNKDDELTGFHHHHHH
notes: also called ILF homodimer with rigid linker

koff [1]: 0.0109 s⁻¹
kon [1]: 3.68e+06 M⁻¹ s⁻¹
Kd [2]: 2.95 nM
B4: AVA04-261 (designed binder)
chain: MIPRGLSEAKPATPEIQEIVDKVKPQLEEKTNETYGKLEAVQYKTQVLAHAYGPRDWDSTNYYIKVRAGDNKYMHLKVFNGPPADHVLEEAADRVLTGYQVDKNKDDELTGF

koff [1]: 0.00354 s⁻¹
kon [1]: 796000 M⁻¹ s⁻¹
Kd (human serum albumin [4]): 15.5 nM
koff (human serum albumin [4]): 0.00234 s⁻¹
kon (human serum albumin [4]): 151000 M⁻¹ s⁻¹
Kd [2]: 4.45 nM
B6: AVA04-269 XT11 (designed binder)
chain: MIPRGLSEAKPATPEIQEIVDKVKPQLEEKTNETYGKLEAVQYKTQVLAKEYGPEEWWSTNYYIKVRAGDNKYMHLKVFNGPGDYEQVLIHADRVLTGYQVDKNKDDELTGFGGGGSGGGGSGGGGSGGGGSGGGGSGGGGSMIPRGLSEAKPATPEIQEIVDKVKPQLEEKTNETYGKLEAVQYKTQVLANFFQRRWPGSTNYYIKVRAGDNKYMHLKVFNGPWKFRNTDRGADRVLTGYQVDKNKDDELTGFHHHHHH

binding response (human serum albumin [5]): 6.5
B13: HSA-41 G58A (designed binder)
chain: MIPRGLSEAKPATPEIQEIVDKVKPQLEEKTNETYGKLEAVQYKTQVLANFFQRRWPASTNYYIKVRAGDNKYMHLKVFNGPWKFRNTDRGADRVLTGYQVDKNKDDELTGFHHHHHH

binding response (human serum albumin [5]): 25.8
B18: HSA-41 N87A (designed binder)
chain: MIPRGLSEAKPATPEIQEIVDKVKPQLEEKTNETYGKLEAVQYKTQVLANFFQRRWPGSTNYYIKVRAGDNKYMHLKVFNGPWKFRATDRGADRVLTGYQVDKNKDDELTGFHHHHHH

binding response (human serum albumin [5]): 26.6
B19: HSA-41 F85A (designed binder)
chain: MIPRGLSEAKPATPEIQEIVDKVKPQLEEKTNETYGKLEAVQYKTQVLANFFQRRWPGSTNYYIKVRAGDNKYMHLKVFNGPWKARNTDRGADRVLTGYQVDKNKDDELTGFHHHHHH
